Changes are numbered by the printed parent chain.
T1: wild-type full-length Merlin(wt) (human, UniProt P35240 1-595)
T1 sequence (looked up): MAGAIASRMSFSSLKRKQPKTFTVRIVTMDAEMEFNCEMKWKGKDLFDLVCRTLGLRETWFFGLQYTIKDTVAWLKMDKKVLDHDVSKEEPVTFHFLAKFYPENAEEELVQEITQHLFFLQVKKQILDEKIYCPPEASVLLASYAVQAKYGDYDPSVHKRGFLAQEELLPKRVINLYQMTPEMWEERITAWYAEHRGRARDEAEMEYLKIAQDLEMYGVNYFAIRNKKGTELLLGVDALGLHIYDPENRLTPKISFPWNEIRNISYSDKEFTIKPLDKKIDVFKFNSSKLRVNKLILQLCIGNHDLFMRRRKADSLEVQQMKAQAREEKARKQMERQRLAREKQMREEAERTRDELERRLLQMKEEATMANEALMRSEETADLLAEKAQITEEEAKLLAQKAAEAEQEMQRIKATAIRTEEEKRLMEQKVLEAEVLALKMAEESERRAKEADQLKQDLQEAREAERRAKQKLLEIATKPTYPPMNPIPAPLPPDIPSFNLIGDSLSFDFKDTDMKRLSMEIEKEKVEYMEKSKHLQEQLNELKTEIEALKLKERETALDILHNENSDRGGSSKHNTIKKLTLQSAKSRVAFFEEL

T2: Merlin(S518D) (human, UniProt P35240 1-595, S518D)
T2 sequence (looked up): T1 sequence (looked up) with S518D

B1: FERM domain of Merlin (domain or fragment, human, UniProt P35240 22-311, looked up)
chain: FTVRIVTMDAEMEFNCEMKWKGKDLFDLVCRTLGLRETWFFGLQYTIKDTVAWLKMDKKVLDHDVSKEEPVTFHFLAKFYPENAEEELVQEITQHLFFLQVKKQILDEKIYCPPEASVLLASYAVQAKYGDYDPSVHKRGFLAQEELLPKRVINLYQMTPEMWEERITAWYAEHRGRARDEAEMEYLKIAQDLEMYGVNYFAIRNKKGTELLLGVDALGLHIYDPENRLTPKISFPWNEIRNISYSDKEFTIKPLDKKIDVFKFNSSKLRVNKLILQLCIGNHDLFMRRR
B2: NHERF1 (natural protein, UniProt O14745 1-358, looked up)
chain: MSADAAAGAPLPRLCCLEKGPNGYGFHLHGEKGKLGQYIRLVEPGSPAEKAGLLAGDRLVEVNGENVEKETHQQVVSRIRAALNAVRLLVVDPETDEQLQKLGVQVREELLRAQEAPGQAEPPAAAEVQGAGNENEPREADKSHPEQRELRPRLCTMKKGPSGYGFNLHSDKSKPGQFIRSVDPDSPAEASGLRAQDRIVEVNGVCMEGKQHGDVVSAIRAGGDETKLLVVDRETDEFFKKCRVIPSQEHLNGPLPVPFTNGEIQKENSREALAEAALESPRPALVRSASSDTSEELNSQDSPPKQDSTAPSSTSSSDPILDFNISLAMAKERAHQKRSSKRAPQMDWSKKNELFSNL

Tests used:
NHERF1 [1] = molecular target: B2; test: SPR
NHERF1 [2] = molecular target: B2; test: ITC
[3] = molecular target: T1, wild-type full-length Merlin(wt); test: SPR
Merlin(S518D) [4] = molecular target: T2, Merlin(S518D); test: SPR
[5] = molecular target: T1, wild-type full-length Merlin(wt); test: ITC
Merlin(S518D) [6] = molecular target: T2, Merlin(S518D); test: ITC
FERM domain of Ezrin = FERM domain of Ezrin (UniProt P15311 2-296); test: ITC
FERM domain of Merlin = molecular target: B1; test: ITC

FERM domain of Ezrin, sequence (P15311 2-296): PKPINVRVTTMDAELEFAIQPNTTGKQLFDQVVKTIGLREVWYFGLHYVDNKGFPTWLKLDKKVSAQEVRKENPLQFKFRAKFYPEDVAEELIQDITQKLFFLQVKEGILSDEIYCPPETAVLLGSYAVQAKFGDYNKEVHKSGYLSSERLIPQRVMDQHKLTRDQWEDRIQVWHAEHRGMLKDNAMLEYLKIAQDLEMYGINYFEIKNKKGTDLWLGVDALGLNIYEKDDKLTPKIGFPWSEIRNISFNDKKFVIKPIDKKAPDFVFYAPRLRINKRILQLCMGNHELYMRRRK

| Kd (NHERF1 [1]) | Kd (NHERF1 [2]) | Kd [3] | Kd (Merlin(S518D) [4]) | Kd [5] | stoichiometry N [5] | Kd (Merlin(S518D) [6]) | stoichiometry N (Merlin(S518D) [6]) | stoichiometry N (FERM domain of Ezrin) | stoichiometry N (FERM domain of Merlin) | Binder |
| --- | --- | --- | --- | --- | --- | --- | --- | --- | --- | --- |
| 459 ± 38 nM | 649 ± 18 nM | – | – | – | – | – | – | – | – | B1 |
| – | – | 956 ± 70 nM | 1240 ± 220 nM | 855 ± 160 nM | 0.37 | 1570 ± 322 nM | 0.39 | 1.06 | 0.93 | B2 |

— PMC4407695 (Journal of molecular biology, 2014)
